# Test results from publication PMC6908968 (Cell, 2019).
# B1: mAb 2.1.6C11 (antibody, V domains shown)
# VH: GAEVKKPGASVKVSCKASGYTFTTYDINWVRQATGQGLEWMGWMNPNSGNTGYAQKFQGRVTMTRNTSISTAYMELRSLRSEDTAVYYCAPGVTFWGQGTLVTVSS
# VL: PSSLSAPVGDRVTITCRASQGISNSLAWFQQKPGKAPKSLIYAASSLQSGVPSNFSGSGSGTDFTLTISSLQPEDFATYYCQQYNSYPWTFGQGTKVEIK
# Target: EBOV GP ectodomain residues 1-636 (GPec) (Zaire ebolavirus, strain  …, UniProt Q05320)
# Assay: ELISA
# Details: both partners purified
# EBOV GP ectodomain residues 1-636 (GPec), sequence (Q05320 33-636): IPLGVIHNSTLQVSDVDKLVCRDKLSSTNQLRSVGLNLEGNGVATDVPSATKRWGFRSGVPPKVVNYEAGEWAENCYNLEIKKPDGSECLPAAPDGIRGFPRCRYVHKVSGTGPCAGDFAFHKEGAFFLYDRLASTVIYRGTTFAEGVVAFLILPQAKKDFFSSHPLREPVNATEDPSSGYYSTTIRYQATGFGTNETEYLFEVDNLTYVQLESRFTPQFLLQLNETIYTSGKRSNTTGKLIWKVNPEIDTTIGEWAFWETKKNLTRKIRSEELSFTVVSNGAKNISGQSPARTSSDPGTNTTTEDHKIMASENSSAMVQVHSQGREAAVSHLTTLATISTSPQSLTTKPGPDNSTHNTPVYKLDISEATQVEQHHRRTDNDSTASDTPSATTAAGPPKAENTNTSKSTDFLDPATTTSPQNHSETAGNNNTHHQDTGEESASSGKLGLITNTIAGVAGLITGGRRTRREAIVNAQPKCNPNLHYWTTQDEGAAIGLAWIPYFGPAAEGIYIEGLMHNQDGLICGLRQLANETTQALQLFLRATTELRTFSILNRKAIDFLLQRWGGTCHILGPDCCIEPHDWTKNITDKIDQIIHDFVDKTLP
binder,measurement,value
B1,binding result,binds
